Biological target: human EphA2-Fc, biotinylated (human, UniProt P29317 24-537, biotin (EZ-Link Sulfo NHS-LC-LC-Biotin, 1:1 molar ratio))
Test: BLI

Sequence of human EphA2-Fc, biotinylated (P29317 24-537): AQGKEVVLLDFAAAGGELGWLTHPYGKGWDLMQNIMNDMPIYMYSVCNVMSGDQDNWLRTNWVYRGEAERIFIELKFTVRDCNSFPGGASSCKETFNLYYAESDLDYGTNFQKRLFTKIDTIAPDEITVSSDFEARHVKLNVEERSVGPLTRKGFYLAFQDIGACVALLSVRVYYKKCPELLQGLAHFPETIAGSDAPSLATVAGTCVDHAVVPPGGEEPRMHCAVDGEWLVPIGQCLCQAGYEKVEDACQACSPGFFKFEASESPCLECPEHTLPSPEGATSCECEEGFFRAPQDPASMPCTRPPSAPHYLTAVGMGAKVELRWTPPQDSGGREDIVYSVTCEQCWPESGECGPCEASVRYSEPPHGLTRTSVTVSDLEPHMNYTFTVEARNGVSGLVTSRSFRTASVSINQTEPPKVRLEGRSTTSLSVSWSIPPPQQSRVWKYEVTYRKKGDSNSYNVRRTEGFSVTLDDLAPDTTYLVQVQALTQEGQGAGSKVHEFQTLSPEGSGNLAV

binding result: binds
B1: human ephrin-A1-Fc (recombinant soluble ephrin-A1 fused to human IgG1Fc) (Fc fusion, UniProt P20827 19-182, looked up)
chain: DRHTVFWNSSNPKFRNEDYTIHVQLNDYVDIICPHYEDHSVADAAMEQYILYLVEHEEYQLCQPQSKDQVRWQCNRPSAKHGPEKLSEKFQRFTPFTLGKEFKEGHSYYYISKPIHQHEDRCLRLKVTVSGKITHSPQAHDNPQEKRLAADDPEVRVLHSIGHS

Source: paper PMC11753358 (Oncogene, 2024)
